Data published in paper PMC2116221.

Target: taxol-stabilized microtubules (bovine brain tubulin) (bovine) (UniProt Q6B856)
Test: co-sedimentation

UniProt Q6B856, sequence (Q6B856 whole entry, looked up): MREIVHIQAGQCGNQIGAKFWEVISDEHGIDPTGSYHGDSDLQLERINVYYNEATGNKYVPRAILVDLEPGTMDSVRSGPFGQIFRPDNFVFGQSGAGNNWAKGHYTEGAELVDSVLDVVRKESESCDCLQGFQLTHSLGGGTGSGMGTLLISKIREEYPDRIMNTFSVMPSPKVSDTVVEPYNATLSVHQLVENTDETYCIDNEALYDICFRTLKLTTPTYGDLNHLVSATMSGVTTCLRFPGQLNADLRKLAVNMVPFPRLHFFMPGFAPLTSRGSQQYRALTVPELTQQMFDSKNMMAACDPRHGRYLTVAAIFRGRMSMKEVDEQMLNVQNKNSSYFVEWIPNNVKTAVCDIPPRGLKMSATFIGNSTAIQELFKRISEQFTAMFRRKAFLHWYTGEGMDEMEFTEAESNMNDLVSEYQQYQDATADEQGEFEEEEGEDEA

| percent extracted from microtubules by 0.5 M NaCl | Substance |
| --- | --- |
| 60% | CHO1 antigen, polypeptide of ~100 kD (HeLa cytoplasm) (from UniProt Q02241-2 1-856) (natural protein) |
| 60% | CHO1 antigen, polypeptide of ~115 kD (HeLa cytoplasm) (from UniProt Q02241 1-960) (natural protein) |
